Experimental data taken from US20200069794A1.

What was measured:
[1] = target: human metapneumovirus (hMPV) fusion (F) protein (Strain: A/TN92-4) (human metapneumovirus) (UniProt Q6WB98); assay: flow cytometry, fluorescent staining of Hela cells transfected with hMPV/hPIV3 mRNA constructs; secondary antibody only (control)
[2] = target: human metapneumovirus (hMPV) fusion (F) protein (Strain: A/TN92-4) (human metapneumovirus) (UniProt Q6WB98); assay: flow cytometry, fluorescent staining of Hela cells transfected with hMPV/hPIV3 mRNA constructs; MPE8 at 500 nM plus secondary antibody

Row | Substance | Mean FL4-H [1] | Mean FL4-H [2]
1 | secondary antibody (staining control, 'Secondary only') | 2160 | 
2 | hMPV-F-specific antibodies MPE-8 (antibody) |  | 617000
